In patent US6713265:

Molecular target: T1, rat Y4 receptor (rat), Q63447
T1 chain: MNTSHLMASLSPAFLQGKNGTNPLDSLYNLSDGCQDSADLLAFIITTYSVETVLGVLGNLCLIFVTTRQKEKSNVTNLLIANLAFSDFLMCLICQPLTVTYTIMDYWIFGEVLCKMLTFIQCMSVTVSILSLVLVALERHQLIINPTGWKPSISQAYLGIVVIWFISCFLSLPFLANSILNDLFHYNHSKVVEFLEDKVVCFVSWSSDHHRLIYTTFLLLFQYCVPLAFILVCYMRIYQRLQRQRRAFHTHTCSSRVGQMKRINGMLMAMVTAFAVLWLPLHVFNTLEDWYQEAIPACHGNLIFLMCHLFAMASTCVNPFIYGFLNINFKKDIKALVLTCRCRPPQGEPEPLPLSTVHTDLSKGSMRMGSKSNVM
Test: 125I-PYY displacement, COS-7 membranes
Conditions: remark: other sources report otherwise

- Ki: 140 nM
Binder: PAEDLARYYSALRHYINLITRQRY (peptide, UniProt P01304 22-45, looked up) [porcine NPY13-36, P01304 22-45]
